From paper PMC9391581, “Mutated KLF4(K409Q) in meningioma binds STRs and activates FGF3 gene expression”

Experiments:
Details in all cases: protein: recombinant; tags: MBP; label: 32P 5' end
MBP-KLF4 DBD [1] = target: T1, MBP-KLF4 DBD (human, UniProt O43474-1 375-479); experiment: EMSA; same strong binding as TRH-122; EMSA: 10 mM Tris-HCl pH 7.5, 53 mM NaCl, 1 mM DTT, 0.01% NP40, 5% glycerol, protein inhibitors, RT 30 min; footprinting: 110 ng to 3 ug protein, RT 30 min, 0.3
MBP-KLF4 full length [2] = target: T2, MBP-KLF4 full length (human, UniProt O43474-1 1-479); experiment: as above
MBP-KLF4 K409Q DBD = MBP-KLF4 K409Q DBD (human, UniProt O43474-1 375-479, K409Q); experiment: EMSA; stronger than FGF3-201; EMSA: 10 mM Tris-HCl pH 7.5, 53 mM NaCl, 1 mM DTT, 0.01% NP40, 5% glycerol, protein inhibitors, RT 30 min; footprinting: 110 ng to 3 ug protein, RT 30 min, 0.3
[3] = target: T3, MBP-KLF4 K409Q full length (human, UniProt O43474-1 1-479, K409Q); experiment: as above
MBP-KLF4 DBD [4] = target: T1, MBP-KLF4 DBD; experiment: EMSA; EMSA: 10 mM Tris-HCl pH 7.5, 53 mM NaCl, 1 mM DTT, 0.01% NP40, 5% glycerol, protein inhibitors, RT 30 min; footprinting: 110 ng to 3 ug protein, RT 30 min, 0.3
MBP-KLF4 full length [5] = target: T2, MBP-KLF4 full length; experiment: as above
[6] = target: T3, MBP-KLF4 K409Q full length; experiment: as above

T3 sequence (O43474 other isoform, or with tags, fused parts or gaps K409Q | K409Q K409Q): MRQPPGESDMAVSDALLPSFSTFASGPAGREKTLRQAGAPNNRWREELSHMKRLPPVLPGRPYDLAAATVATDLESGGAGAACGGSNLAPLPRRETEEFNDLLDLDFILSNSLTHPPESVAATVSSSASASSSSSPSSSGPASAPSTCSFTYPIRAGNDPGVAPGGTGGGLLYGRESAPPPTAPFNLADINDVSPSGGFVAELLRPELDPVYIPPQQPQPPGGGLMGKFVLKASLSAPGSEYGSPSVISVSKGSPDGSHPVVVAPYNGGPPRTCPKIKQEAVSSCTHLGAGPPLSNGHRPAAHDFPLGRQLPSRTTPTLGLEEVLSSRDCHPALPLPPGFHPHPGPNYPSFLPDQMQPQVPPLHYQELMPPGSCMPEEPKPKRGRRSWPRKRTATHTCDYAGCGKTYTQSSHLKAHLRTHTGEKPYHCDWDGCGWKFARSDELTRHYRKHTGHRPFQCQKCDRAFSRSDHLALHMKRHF
T2 sequence (O43474 other isoform, or with tags, fused parts or gaps): as the sequence (O43474 other isoform, or with tags, fused parts or gaps K409Q | K409Q K409Q) above, with Q409K counted along it
T1 sequence (O43474 409-513): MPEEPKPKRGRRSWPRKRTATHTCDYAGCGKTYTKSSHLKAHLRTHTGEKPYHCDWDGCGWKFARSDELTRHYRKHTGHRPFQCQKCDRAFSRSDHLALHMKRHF
Chain of MBP-KLF4 K409Q DBD (O43474 409-513 K443Q): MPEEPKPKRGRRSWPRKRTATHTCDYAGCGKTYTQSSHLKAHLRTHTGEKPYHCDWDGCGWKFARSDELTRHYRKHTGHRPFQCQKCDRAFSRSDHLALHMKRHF

B1: TRH-122M (dsDNA)
DNA 1: GAGCAGGCGGGCGGGGCCCCGC
DNA 2: GCGGGGCCCCGCCCGCCTGCTC
**Q.** Does B1 bind (MBP-KLF4 DBD [1])?
**A.** binds

**Q.** Does B1 bind (MBP-KLF4 full length [2])?
**A.** binds

B2: FGF3-201M (dsDNA)
DNA 1: CCTTTAATGGGTGTGTGTCAGC
DNA 2: GCTGACACACACCCATTAAAGG
**Q.** Does B2 bind (MBP-KLF4 K409Q DBD)?
**A.** binds

**Q.** Does B2 bind [3]?
**A.** binds

B3: TRH-122 (dsDNA)
DNA 1: GAGCAGGCGGGCGGGGTCCCGC
DNA 2: GCGGGACCCCGCCCGCCTGCTC
**Q.** Does B3 bind (MBP-KLF4 DBD [4])?
**A.** binds

**Q.** Does B3 bind (MBP-KLF4 full length [5])?
**A.** binds

**Q.** Does B3 bind [6]?
**A.** binds
